# Laboratory results as given in paper PMC4122339, “Carbonic Anhydrase Generates CO2 and H^+ That Drive Spider Silk Formation Via Opposite Effects on the Terminal Domains” (PLoS Biology, 2014).
# B1: Araneus ventricosus minor ampullate spidroin (MiSp) C-terminal domain, truncated construct (residues 31-150 of the 150-residue C-terminal part) (domain or fragment)
# chain: VTSGGYGYGTSAAAGAGVAAGSYAGAVNRLSSAEAASRVSSNIAAIASGGASALPSVISNIYSGVVASGVSSNEALIQALLELLSALVHVLSSASIGNVSSVGVDSTLNVVQDSVGQYVG
# modifications: uniformly 13C/15N-labelled (a mixed sample of 50% 13C/15N-labelled and 50% unlabelled protein was used for the intermolecular NOEs)
# notes: C-terminal domain of minor ampullate spidroin (MiSp), Araneus ventricosus; residues 31-150 of the printed 150-residue construct; PDB 2MFZ would settle this; also called A. ventricosus MiSp CT; source: E. coli BL21 (DE3), minimal medium, purified (Ni-NTA, thrombin cleavage, Ni-NTA); not shown: His tag-Thioredoxin-His tag, N-terminal, cleaved
# Molecular target: the molecule itself
# Experiment: NMR structure; solution NMR at 298 K; 1 mM protein in 20 mM sodium phosphate pH 6.8, 20 mM NaCl; intermolecular NOEs from a 13C/15N-filtered NOESY on a 50% labelled / 50% unlabelled sample, used as distance restraints with an upper limit of 5 Å
protein,measurement,value
B1,binding result,binds
